Numbering of substitutions follows the chain as printed. In names and notes the source's numbering stands.
B1: Human peroxiredoxin 2 C172W mutant, reduced (enzyme, UniProt P32119 2-198, looked up)
chain: ASGNARIGKPAPDFKATAVVDGAFKEVKLSDYKGKYVVLFFYPLDFTFVCPTEIIAFSNRAEDFRKLGCEVLGVSVDSQFTHLAWINTPRKEGGLGPLNIPLLADVTRRLSEDYGVLKTDEGIAYRGLFIIDGKGVLRQITVNDLPVGRSVDEALRLVQAFQYTDEHGEVWPAGWKPGSDTIKPNVDDSKEYFSKHN
B2: Human peroxiredoxin 2 C172S mutant, reduced (enzyme, UniProt P32119 2-198, looked up)
chain: B1 chain with W171S
B3: Human peroxiredoxin 2 C172D mutant, reduced (enzyme, UniProt P32119 2-198, looked up)
chain: B1 chain with W171D
B4: Human peroxiredoxin 2, recombinant wild type, hyperoxidized (CP sulfinate) form (enzyme, UniProt P32119 2-198, looked up)
chain: B1 chain with W171C
modifications: Cys51 (CP) sulfinate

Columns and labels:
SEC = biological target: the molecule itself; assay: SEC
SEC-MALS = biological target: the molecule itself; assay: SEC-MALS
AUC = biological target: the molecule itself; assay: AUC
crystal structure = biological target: the molecule itself; assay: crystal structure

Row | Protein | percent decamer (SEC) | stoichiometry N (SEC-MALS) | stoichiometry N (AUC) | stoichiometry N (crystal structure)
1 | B1 | 62% | 10 |  | 
2 | B2 | 60% |  | 10 | 
3 | B3 | 45% |  | 10 | 
4 | B4 |  |  |  | 10

From PMC8049995 (The Journal of Biological Chemistry, 2021)
